Biological target: T1, ALK peptide on H-2Dd (mouse)
T1 peptide: PGPGRVAKI
Assay: multimer staining

binding result: recognises
B1: Clonotype_1 (Table 1) (TCR, V domains shown)
Valpha: QQKVQQSPESLSVPEGGMASFNCTSSDRNFQYFWWYRQHSGEGPKALMSIFSDGDKKEGRFTAHLNKASLHVSLHIRDSQPSDSALYFCAASEHGNNRIFFGDGTQLVVKP
Vbeta: ETAVFQTPNYHVTQVGNEVSFNCKQTLGHDTMYWYKQDSKKLLKIMFSYNNKQLIVNETVPRRFSPQSSDKAHLNLRIKSVEPEDSAVYLCASSQDWDEQYFGPGTRLTVL

Reference: patent US20260049279A1 (published 2026)
